According to patent EP3922644A2 (The Texas A&M University System, dated 2021):

Legend:
[1] = molecular target: Fibrinogen-D fragment (human, plasmin digest) (human) (UniProt P02671); experiment: ITC (VP-ITC), peptide titrated into 10 µM Fg-D, one-site model, 27°C
[2] = molecular target: human fibrinogen (human) (UniProt P02671); experiment: ELISA, GST-tagged Coa fragment on immobilized Fg
[3] = molecular target: human fibrinogen (human) (UniProt P02671); experiment: apparent KD, solid phase binding assay, DC2-Fg coated 1 µg/well, Fg titrated 0-0.3 µM
[4] = molecular target: human fibrinogen (human) (UniProt P02671); experiment: apparent affinity, ELISA, GST-tagged Coa fragment on immobilized Fg
[5] = molecular target: human fibrinogen (human) (UniProt P02671); experiment: apparent KD, solid phase binding assay, Efb coated 1 µg/well, Fg titrated 0-0.3 µM
[6] = molecular target: T1, Fibrinogen-D fragment (human, plasmin digest) (human, UniProt P02671 124-225; P02675 164-491; P02679 89-437); experiment: ITC (VP-ITC), peptide titrated into 10 µM Fg-D, one-site model, 27°C
T1 construct: domain: D fragment; Made by digesting human Fg with plasmin for 4 h and gel filtration; also called Fg-D; Fg-D fragment
T1 sequence 1: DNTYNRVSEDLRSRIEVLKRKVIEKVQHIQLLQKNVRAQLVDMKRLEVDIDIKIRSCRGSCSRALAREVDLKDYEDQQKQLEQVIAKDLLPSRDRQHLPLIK
T1 sequence 2: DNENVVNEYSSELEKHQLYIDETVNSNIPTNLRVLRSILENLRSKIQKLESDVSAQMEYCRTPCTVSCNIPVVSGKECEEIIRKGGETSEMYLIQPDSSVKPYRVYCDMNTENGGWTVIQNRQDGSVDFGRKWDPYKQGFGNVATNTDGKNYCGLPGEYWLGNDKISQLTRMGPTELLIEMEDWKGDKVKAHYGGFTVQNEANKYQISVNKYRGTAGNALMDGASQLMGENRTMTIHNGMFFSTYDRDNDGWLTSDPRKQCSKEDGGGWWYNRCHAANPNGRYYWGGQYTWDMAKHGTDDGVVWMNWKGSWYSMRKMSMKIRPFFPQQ
T1 sequence 3: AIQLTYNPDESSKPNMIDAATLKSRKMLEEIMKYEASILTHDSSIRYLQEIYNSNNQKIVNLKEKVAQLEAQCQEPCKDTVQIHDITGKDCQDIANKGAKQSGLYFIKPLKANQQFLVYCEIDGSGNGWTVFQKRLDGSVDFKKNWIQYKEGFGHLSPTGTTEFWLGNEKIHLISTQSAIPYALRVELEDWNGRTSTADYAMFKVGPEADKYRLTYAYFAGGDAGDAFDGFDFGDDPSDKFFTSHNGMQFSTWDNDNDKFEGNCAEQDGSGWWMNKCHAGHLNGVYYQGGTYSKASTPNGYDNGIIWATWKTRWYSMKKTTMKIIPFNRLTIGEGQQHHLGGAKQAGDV

[7] = molecular target: Efb-A30-67, GST-tagged recombinant protein (Staphylococcus aureus strain Newman, UniProt P08515 1-218 = GST; A6QG59 30-67); experiment: apparent Kd from half maximum binding in ELISA
[8] = molecular target: T2, rEfb-O (Efb 68-98), GST-tagged recombinant protein (Staphylococcus aureus strain Newman); experiment: apparent Kd from half maximum binding in ELISA
T2 construct: also called Efb-O68-98; not shown: N-terminal GST tag from pGEX-5x-1
T2 chain: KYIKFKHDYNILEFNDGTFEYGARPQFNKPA

[9] = molecular target: T3, Efb-N30-105, His-tagged recombinant protein (Staphylococcus aureus strain Newman, UniProt A6QG59 30-105); experiment: apparent Kd from half maximum binding in ELISA
T3 construct: range 30-105; not shown: polyhistidine tag (detected with anti-HIS-tag antibody)
T3 sequence (looked up): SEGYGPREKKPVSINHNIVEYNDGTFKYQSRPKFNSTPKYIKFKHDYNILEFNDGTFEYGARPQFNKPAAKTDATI

sCoa-RI3, synthetic peptide Coa 502-528
Kd [1]: 124 nM

Coa-C (Coa 311-636), GST-tagged (from UniProt P08515 1-218)
EC50 [2]: 7.5 nM

DC2-Fg, DC2 with the fibrinogen binding motif Efb-O inserted after Gln 301 (designed binder)
Kd [3]: 10 nM

Coa-R (Coa 506-636), GST-tagged (from UniProt P08515 1-218)
Kd [4]: 0.8 nM

Efb as coated in the solid phase binding assay of the DC proteins (from UniProt A6QG59 30-165)
Kd [5]: 1 nM

sCoa-RV1, synthetic peptide Coa 610-636
Kd [1]: 139 nM

ETNAYNVTTHANGQVSYGARPTYKKPS (also called peptide CoaRI) [sCoa-RI, synthetic peptide Coa 506-532]
Kd [6]: 88 nM

B1: FBE5-F11 (Fc fusion)
VH: QVQLQESGGGVVQPGRSLRLSCAASGFTFSSYGMHWVRQAPGKGLEWVAVISYDGSNKYYADSVKGRFTISRDNSKNTLYLQMNSLRAEDTAVYYCAKDLASSGFDYWGQGTLVTVSS
VL: QSVLTQPPSVSAAPGQKVTISCSGSSSNIGNNYVSWYQQLPGTAPKLLIYDNNKRPSGIPDRFSGSKSGTSATLGITGLQTGDEADYYCGTWDSSLSAEVFGGGTKLTVL
notes: Tested as scFv-Fc (human scFv from HAL9/HAL10 recloned into pCSE2.6-hIgG1-Fc-XP, made in HEK293-6E)
Kd [7]: ~0.1 nM
Kd [8]: ~0.1 nM
Kd [9]: ~0.1 nM
